Experimental data published in publication PMC3779530 (Innate immunity, 2013).
Read-outs that look alike come from different tables or passages of the source.

Columns and labels:
TLR4 ECD (Homo sapiens) [1] = molecular target: TLR4 ECD (Homo sapiens) (UniProt O00206); settings: cited from earlier work
Target sequence in this assay (O00206 24-631): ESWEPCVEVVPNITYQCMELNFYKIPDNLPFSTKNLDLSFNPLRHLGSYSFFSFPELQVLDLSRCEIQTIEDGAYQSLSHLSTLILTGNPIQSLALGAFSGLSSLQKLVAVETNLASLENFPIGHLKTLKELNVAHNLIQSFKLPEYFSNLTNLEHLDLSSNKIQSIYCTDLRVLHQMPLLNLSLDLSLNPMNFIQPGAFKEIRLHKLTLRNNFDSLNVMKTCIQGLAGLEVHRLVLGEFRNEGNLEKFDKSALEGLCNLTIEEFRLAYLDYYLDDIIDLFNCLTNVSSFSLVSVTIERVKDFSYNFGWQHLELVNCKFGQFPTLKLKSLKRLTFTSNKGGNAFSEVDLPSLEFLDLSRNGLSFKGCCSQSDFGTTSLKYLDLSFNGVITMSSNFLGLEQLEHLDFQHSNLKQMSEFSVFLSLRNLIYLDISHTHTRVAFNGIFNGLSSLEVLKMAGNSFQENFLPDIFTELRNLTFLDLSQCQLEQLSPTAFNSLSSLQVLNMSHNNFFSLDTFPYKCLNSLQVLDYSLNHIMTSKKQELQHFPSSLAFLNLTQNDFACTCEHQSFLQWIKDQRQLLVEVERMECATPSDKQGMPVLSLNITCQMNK

TLR4 ECD (Homo sapiens) [2] = molecular target: TLR4 ECD (Homo sapiens) (UniProt O00206); settings: cited from earlier work; remark: listed apart in the source
Target sequence in this assay (O00206 24-631 D299G/T399I): as the sequence (O00206 24-631) above, with D276G, T376I counted along it

[3] = molecular target: full-length wild-type TLR4 on transiently transfected HEK293T cells (human, UniProt O00206 24-839); test: radioligand binding
[4] = molecular target: FLAG-tagged TLR4 ectodomain-vlr-Fc protein (not stated | hagfish) (UniProt O00206); test: radioligand binding

Chain of full-length wild-type TLR4 on transiently transfected HEK293T cells (O00206 24-839): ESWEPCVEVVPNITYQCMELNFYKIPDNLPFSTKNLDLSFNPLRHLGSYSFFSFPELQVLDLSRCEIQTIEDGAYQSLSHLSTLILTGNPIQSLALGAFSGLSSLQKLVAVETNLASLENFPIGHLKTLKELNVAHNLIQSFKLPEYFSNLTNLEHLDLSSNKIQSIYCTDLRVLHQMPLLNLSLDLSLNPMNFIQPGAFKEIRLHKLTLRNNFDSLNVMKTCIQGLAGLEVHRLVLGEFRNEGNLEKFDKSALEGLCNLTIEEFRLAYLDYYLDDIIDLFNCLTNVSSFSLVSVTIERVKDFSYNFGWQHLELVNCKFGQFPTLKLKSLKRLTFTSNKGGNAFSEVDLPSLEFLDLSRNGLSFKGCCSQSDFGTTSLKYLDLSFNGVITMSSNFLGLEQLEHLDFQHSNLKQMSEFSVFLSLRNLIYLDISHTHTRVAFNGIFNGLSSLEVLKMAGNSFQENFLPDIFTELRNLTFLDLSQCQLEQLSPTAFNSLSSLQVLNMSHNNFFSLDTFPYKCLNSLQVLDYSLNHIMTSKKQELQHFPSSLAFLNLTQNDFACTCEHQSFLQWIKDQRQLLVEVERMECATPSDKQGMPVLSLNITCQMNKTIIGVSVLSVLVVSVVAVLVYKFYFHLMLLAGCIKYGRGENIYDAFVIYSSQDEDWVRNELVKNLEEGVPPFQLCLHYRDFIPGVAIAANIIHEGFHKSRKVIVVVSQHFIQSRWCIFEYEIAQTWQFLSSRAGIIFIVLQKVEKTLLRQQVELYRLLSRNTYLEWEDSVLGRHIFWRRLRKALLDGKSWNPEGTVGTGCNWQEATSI

LOS·MD-2 (from UniProt Q9Y6Y9)
Kd (TLR4 ECD (Homo sapiens) [1]): 0.2 nM | Kd (TLR4 ECD (Homo sapiens) [2]): 0.2 nM

B1: metabolically labeled LOS·MD-2 (monomeric complex of Neisseria meningitidis lipooligosaccharide and recombinant human His6-MD-2) (ligand)
chain: QKQYWVCNSSDASISYTYCDKMQYPISINVNPCIELKRSKGLLHIFYIPRRDLKQLYFNLYITVNTMNLPKRKEVICRGSDDDYSFCRALKGETVNTTISFSFKGIKFSKGKYKCVVEAISGSPEEMLFCLEFVILHQPNSN
Kd [3]: 0.367 ± 0.136 nM | Kd [4]: 0.117 nM
